B1: t-SNARE VTI1 (Saccharomyces cerevisiae), Q04338 (parent)
chain: MSSLLISYESDFKTTLEQAKASLAEAPSQPLSQRNTTLKHVEQQQDELFDLLDQMDVEVNNSIGDASERATYKAKLREWKKTIQSDIKRPLQSLVDSGDRDRLFGDLNASNIDDDQRQQLLSNHAILQKSGDRLKDASRIANETEGIGSQIMMDLRSQRETLENARQTLFQADSYVDKSIKTLKTMTRRLVANKFISYAIIAVLILLILLVLFSKFK
partner: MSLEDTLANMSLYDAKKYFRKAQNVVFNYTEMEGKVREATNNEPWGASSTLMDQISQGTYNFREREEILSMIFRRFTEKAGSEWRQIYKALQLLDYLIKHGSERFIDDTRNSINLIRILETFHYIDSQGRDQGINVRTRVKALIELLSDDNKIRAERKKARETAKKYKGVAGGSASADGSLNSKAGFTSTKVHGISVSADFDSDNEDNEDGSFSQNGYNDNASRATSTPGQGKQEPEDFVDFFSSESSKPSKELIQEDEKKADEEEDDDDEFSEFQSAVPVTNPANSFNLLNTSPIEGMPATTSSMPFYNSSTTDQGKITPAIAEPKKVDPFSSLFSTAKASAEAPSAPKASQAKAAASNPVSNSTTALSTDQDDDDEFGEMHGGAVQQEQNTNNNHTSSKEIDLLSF
B2: Epsin-3 (Saccharomyces cerevisiae), P47160 (parent)
chain: B1 partner

Variants of: B1
Conditions: with ent3_yeast ENT3, P47160

Variant	effect of a mutation on the interaction
MSSLLISYESDFKTTLEQAKASLAEAPSQPLSQRNTTLKHVEQQQDELFDLLDQMDVEVNNSIGDASERATYKAKLREWKKTIQSDIKRPLQSLVRSGDRDRLFGDLNASNIDDDQRQQLLSNHAILQKSGDRLKDASRIANETEGIGSQIMMDLRSQRETLENARQTLFQADSYVDKSIKTLKTMTRRLVANKFISYAIIAVLILLILLVLFSKFK [D96R]	disrupting interaction strength
MSSLLISYESDFKTTLEQAKASLAEAPSQPLSQRNTTLKHVEQQQRELFDLLDQMDVEVNNSIGDASERATYKAKLREWKKTIQSDIKRPLQSLVDSGDRDRLFGDLNASNIDDDQRQQLLSNHAILQKSGDRLKDASRIANETEGIGSQIMMDLRSQRETLENARQTLFQADSYVDKSIKTLKTMTRRLVANKFISYAIIAVLILLILLVLFSKFK [D46R]	disrupting interaction strength
MSSLLISYESDFKTTLEQAKASLAEAPSQPLSQRNTTLKHVRQQQDELFDLLDQMDVEVNNSIGDASERATYKAKLREWKKTIQSDIKRPLQSLVDSGDRDRLFGDLNASNIDDDQRQQLLSNHAILQKSGDRLKDASRIANETEGIGSQIMMDLRSQRETLENARQTLFQADSYVDKSIKTLKTMTRRLVANKFISYAIIAVLILLILLVLFSKFK [E42R]	disrupting interaction strength

Variants of: B2
Conditions: with vti1_yeast VTI1, Q04338

Variant	effect of a mutation on the interaction
MSLEDTLANMSLYDAKKYFRKAQNVVFNYTEMEGKVREATNNEPWGASSTLMDQISQGTYNFREREEILSMIFRRFTEKAGSEWRQIYKALQLLDYLIKHGSERFIDDTRNSINLIRILETFHYIDSQGRDQGINVRTRVKALIELLSDDNKIRAERKKAEETAKKYKGVAGGSASADGSLNSKAGFTSTKVHGISVSADFDSDNEDNEDGSFSQNGYNDNASRATSTPGQGKQEPEDFVDFFSSESSKPSKELIQEDEKKADEEEDDDDEFSEFQSAVPVTNPANSFNLLNTSPIEGMPATTSSMPFYNSSTTDQGKITPAIAEPKKVDPFSSLFSTAKASAEAPSAPKASQAKAAASNPVSNSTTALSTDQDDDDEFGEMHGGAVQQEQNTNNNHTSSKEIDLLSF [R161E]	disrupting interaction strength
MSLEDTLANMSLYDAKKYFRKAQNVVFNYTEMEGKVREATNNEPWGASSTLMDQISQGTYNFREREEILSMIFRRFTEKAGSEWRQIYKALQLLDYLIKHGSERFIDDTRNSINLIRILETFHYIDSQGRDQGINVRTRVKALIELLSDDNKIRAEEKKARETAKKYKGVAGGSASADGSLNSKAGFTSTKVHGISVSADFDSDNEDNEDGSFSQNGYNDNASRATSTPGQGKQEPEDFVDFFSSESSKPSKELIQEDEKKADEEEDDDDEFSEFQSAVPVTNPANSFNLLNTSPIEGMPATTSSMPFYNSSTTDQGKITPAIAEPKKVDPFSSLFSTAKASAEAPSAPKASQAKAAASNPVSNSTTALSTDQDDDDEFGEMHGGAVQQEQNTNNNHTSSKEIDLLSF [R157E]	disrupting interaction strength
